Measurements as given in US20070292420A1 (Janssen / Centocor, published 2007).

How the values were obtained:
recombinant human IL-6 [1] = target: T1, recombinant human IL-6 (human, UniProt P05231 30-212); assay: cell-based or functional assay
recombinant human IL-6 [2] = target: T1, recombinant human IL-6; assay: SPR (BIAcore 2000, 25 C); cCLB8 captured on anti-human Fc, IL-6 as analyte; 1:1 model; second experiment
Experimental: (§1) An anti-human Fc (1.8 mg/ml) was diluted to a concentration of 50 μg/ml in NaOAc buffer (10 mM, pH 4.8) and coupled to the carboxymethylated dextran matrix of a CM-5 sensor chip using the manufacturer's amine-coupling chemistry as described in the BIAcore systems manual. Using the surface preparation wizard aiming for 10000 RU, the carboxyl groups on the sensor surfaces were first activated with NHS/EDC followed by the addition of the anti-human Fc. The remaining activated groups were blocked by the injection of 1M ethanolamine. Each of the flow cells was coupled individually. Employing these conditions, the four flow cell surfaces containing 7554-9571 resonance units (RU) of anti-human Fc were prepared. In preliminary experiments, it was determined that three injections (15 ul at 30 μl/min) 100mM H3PO4/0.05% CHAPS would efficiently remove the bound immunoglobulin and preserve the binding capacity of the immobilized anti-human Fc.
(§2) Two experiments were performed on the BIAcore 2000 at 25 °C and a flow rate of 30 μL/min. cCLB8 was dissolved in HBS at 5 ug/ml. […] A designated amount of antibody was flowed over its respective flow cell followed by injections of 30 μl of each IL-6 concentration at 30 μl/min (association phase) and an uninterrupted 800 seconds of buffer flow (dissociation phase). The surface of the chip was regenerated by three sequential injections of 15 μl each with 100 mM H3PO4/0.05% CHAPS. The injections of HBS serve as a reference (blank sensogram) for the subtraction of bulk refractive indices for analysis. Using the 1:1 model in BIAanalysis 3.0, a local fit was done for both dissociation (kd, [s−1] and association (ka, [M-1s−1]) and the dissociation constant (KD, [M]) calculated (kd/ka).
(§3) Analysis was done using BIAevaluation version 3.0. Kinetic constants were derived from sensogram data by fitting the experimental curves to the rate equations derived from models of the interaction mechanism. A global analysis using a 1:1 binding model with local RUmax fit, the ka, kd, KD were determined (Table 1).

recombinant human IL-6 [3] = target: T1, recombinant human IL-6; assay: SPR (BIAcore 2000, 25 C); cCLB8 captured on anti-human Fc, IL-6 as analyte; 1:1 model
Experimental: as §1, §2, §3

recombinant human IL-6 [4] = target: T1, recombinant human IL-6; assay: solid phase EIA, plate coated with recombinant human IL-6 at 1 µg/mL, detection with HRP goat anti-human IgG, OD 490
Experimental: A solid phase EIA was used to assess binding characteristics of cCLB8 Mab to human IL-6. Briefly, plates were coated with recombinant human IL-6 (RDI) at 1 μg/mL in PBS overnight at 4° C. After washing in 0.15M saline containing 0.02% (v/v) Tween 20, the wells were blocked with 1% (w/v) BSA in PBS, 200 μL/well for 1 hour at RT. Purified antibody was incubated in two-fold serial dilutions from a starting concentration of 5 μg/mL for 1 hour at 37° C. The plate was washed and then probed with 50 μL/well HRP-labeled goat anti-human IgG (Tago) diluted 1:20,000 in 1% BSA-PBS for 1 hour at RT. The plate was again washed and 100 μL/well of the citrate-phosphate substrate solution (0.1 M citric acid and 0.2M sodium phosphate, 0.01% H₂O₂ and 1 mg/mL OPD) was added for 15 minutes at RT. Stop solution (4N sulfuric acid) was then added at 25 μL/well and the absorption at 490 nm quantitated using an automated plate photometer.

Kd (recombinant human IL-6 [2]): 140 pM
koff (recombinant human IL-6 [2]): 5.2e-05 s⁻¹
kon (recombinant human IL-6 [2]): 370000 M⁻¹ s⁻¹
Kd (recombinant human IL-6 [3]): 57 pM
koff (recombinant human IL-6 [3]): 6.2e-05 s⁻¹
kon (recombinant human IL-6 [3]): 1.1e+06 M⁻¹ s⁻¹
EC50 (read off the curve) (recombinant human IL-6 [4]): ~4 ng/mL
B1: chimeric CLB8 anti-human IL-6 monoclonal antibody (antibody, IgG1, V domains shown)
VH: EVQLVESGGKLLKPGGSLKLSCAASGFTFSSFAMSWFRQSPEKRLEWVAEISSGGSYTYYPDTVTGRFTISRDNAKNTLYLEMSSLRSEDTAMYYCARGLWGYYALDYWGQGTSVTVSS
VL: QIVLIQSPAIMSASPGEKVTMTCSASSSVSYMYWYQQKPGSSPRLLIYDTSNLASGVPVRFSGSGSGTSYSLTISRMEAEDAATYYCQQWSGYPYTFGGGTKLEIK
notes: Murine CLB-8 variable regions joined to human constant regions; IgG1 and kappa are named only as preferred; also called anti-IL-6 cCLB-8 antibody; CNTO 328
EC50 of inhibition of IL-6 induced 7TD1 cell proliferation (luminescent ATP assay) (recombinant human IL-6 [1]): 7.2 ng/mL
